Results from the domain aggregation screens of Martell et al. (2025).

Test: soluble fraction after stress (log2 fold change); higher = more stays soluble; pooled small domains, quantitative proteomics
Settings: stress: 75 degC
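Further: 20 min heating vs room temperature control held 20 min.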

| Sequence | soluble fraction (log2) |
| --- | --- |
| HMAADWTAIKLAYVNGGMSMRELAQRFHVGAAGLMKRAAKEGWEAERQQNSAKVSNAAQMLIN | 0.049 |
| HMAAEEAFPGGRIVQNAEENRLQILFDEIPGEDVRAALKSHGFRWSPKNKAWQRQLTQNAEYDARRILGI | -0.06 |
| HMAAEELTVDKILTAQSFGVTAEAILAKVNDPANTVATLTQADVDRLRAAGVPEGVVTALQARAPQ | 0.118 |
| HMAAENAVGARVKALREAMDLSLRDLSERSGVSPTMLSQVERGSTSPTLAVAEKIAAGLDLSLSQLLRL | 0.137 |
| HMAAGADEATTVPNVSGDTLNQAIKSLKAEGLGYMLSGAGARVRDQMPEPGAEMTKGSVVMLYMDGDAEVD | -0.0497 |
| HMAAGVESLTEKEFAVASLVGGGASNREIAERLAMSERTVKSHLSSIFRKMDVRDRVQLALAMND | -0.0767 |
| HMAAIPATVDEETYRRLKPMLKQYGILYHEFKPLRSGKKGAVELIFMEKDLALVQELLSRLKKEK | 0.432 |
| HMAAIPEQVSEEVVSAVKASGIDPGKVTKEQWTSLLKGRRTALGSSSGKLFMLSKAPVGYTLKAVNA | 0.439 |
| HMAAMDMFVKLDALDAELTEQLKALPAEPDDARVERGLALLTDYDHRIKALLTEIFGGENDFDKVL | -3.1 |
| HMAAPPPLSDYRNMQEAEHIRNILLQHHGNVRRAAAALELSRPYLYQKMKQLGINIAELRELSLSHSS | -1.03 |
| HMAASEAESIRILLSEGVDRVHLRKPQSAEADMRRLIEALPPELYPRLTLQDHLHLAGEYGT | -0.0361 |
| HMAATGPLTPREAEIARLAAGHLSNRQIAEQLVVSERTVENHLYRIFIKLAVTGRDDLAAALAATEQ | -2.55 |
| HMAATNVKVPDLKGWDYNNAVGKYGDKLSFVKKSIYSDSVSKGIIIYNARVGETVAQGTTIEVTVSLGPKG | -1.46 |
| HMAAVPYQVKITTEDLRIRTGPGTNHDFTGQYTGKGVFTIVEESEGSGAPIWGRLKSGAGWIGIDPSWSVR | -0.546 |
| HMADAGQTTAATELKQAPNAGSATISQLSAGQTLQIGTRQGAWYQVKTPQGEGWVRMLSVRLQ | -0.0302 |
| HMADEGFRQTVLAVLARWESKIHHGQYNALKAKVMNGNWSSFVKQVVKFQGKFIHPDAAKELLGLFG | -3.5 |
| HMADFIKEIKTNNPRQLLKSILSSFMPRALILELEMLLWNDLKSKPIGEWSNTQIENVGKLLNNWILKPAA | 0.162 |
| HMADIWDLLRSEYKLTETDVRMLTDMLPDELMNDFRSEVLALRDRMNRYKVNNPKSYVVTSLKNFIIQHTP | -1.09 |
| HMADKNIIGVLSAADNLGKVRITTANGEKYIITVPDGLSDIVKTYWEEEVSVKYVIEKRRKILVDIDG | -2.04 |
| HMADLIIMSSDATEKQVDKVINKIKNMGFNVNISKGTEKTIIGIIGDTRGISDEVFKIMPGVIEVISILRD | -1.09 |
| HMADLIVFTTDANKEKKVDDETYFYLDVVSDGKLVENYELTEKQYNYIKDLGVGEYVYNEKGKLDSYTAFT | -0.00206 |
| HMADPLQLLEQQRQDYIQAVTEYLNSHPNAKPIWDVMKKDAGYGDMKLTDIPLGILKKLYITLT | -0.65 |
| HMADRVFGHIPGVAVGSIFPDRRSLSQTGVHRPTQAGISGNKTDGADSIVVSGGYRDDRDYGDLIIYTG | -0.107 |
| HMADTFVMPDLVYRRYEPVRGYFERGGFHMGAVKFEPYEGISDGTILRQNPLPGHPLRRRDVISLVVAAS | -2.4 |
| HMADYYETLGVERTASEEDIKRAYRKMSRKYHPDIAGPEFEEKFKEVNTAYEVLSDPDKRRMYDAGVDPND | 0.0815 |
| HMADYYSILGLTKNATDIEIKSAFRKLAKIYHPDKNPDPNARVLFEHILKAYDTLINPHSRRRYDSL | -1.31 |
| HMAEELELFHRLISVTGVGPKGALGFLSQLKPQEIILAILSDDVKTLSKAPGVGRKTAQRVILELKDKF | -1.07 |
| HMAEGPYSGKKVEKYPGGMEKRETMYSEGKLTRVTEFHQSGQKKMEVKVDANGQWKRLYWDNNGNPT | -0.0401 |

| Sequence | soluble fraction (log2) |
| --- | --- |
| HMAEIIVHEINRHLGESDEPVEFPEERREEAVAELLKNFHNDDAFRKMDDGKYEVALDGEAVREAARSLLA | 0.175 |
| HMAELTTVQAADILHVSRPFLIKLLDEGQIPYHRVGKHRRIRMEDVMNYKRAIDQQREAVLDQLVAEA | -0.371 |
| HMAEMLQDVLNMLSAKDREILVRYYYYYESVKQVAAEMQMSESAVKMRMSRARKKMQQELIDKG | -4.61 |
| HMAEPAEDLLSLEGMDKGLAYQLASNGVVTREDLAELATDDLLEIREMDAEQAAALIMKAREHWFEAEQQ | 0.755 |
| HMAEPEALLAMAQRILGEEVAQSLFQGAAREQGKEGYLPDPTPAFLDALEARLSGSVGAATAHAMISQLVG | -0.15 |
| HMAEPSTSYTQFMDQAKEGKIKRVDVQGRTLTVTPTEGATYKITAPGDLWMVEDLRKAGVQVYGQP | 0.29 |
| HMAEPYDERKVMEQMIPKGKNTIVAHLGHLKDHGETGYLQEALSYLRERESELGFDLKEVRALVHN | 0.365 |
| HMAEQVLHQKLAARRKELNSLVAQVARVRGIPHSHVHSGLRREAGGPPLAQATTDQVEARISLARKWLRA | -1.47 |
| HMAERLQARIDAPGVRLDKALAETFPTLSRARLQALLADGAVTRDGQTVSNGSAKAQPGLYVVALPPVA | 0.385 |
| HMAESNQIQLSDVREALNMIGPASWLDLVHYLDTGKGRGGQRLRRMLKSLSRSGEIELVARGTYQITDN | -0.437 |
| HMAEVALFVNGSDVNLRSGPGQESTRVIGSLNLGDEVRIKSQNGQWREVYVPKTRQVGWVAHWLLSEAPP | -0.535 |
| HMAEVPDLRNKTQQEAEAELTNHNLKLGNVTEEYSATVEAGRVISQSTSYGTKVLEGSSVDITISKGPEPT | 0.135 |
| HMAEWLFDARKIPDEVMNYLRRIAVQAIEEKHYSPELVADLLGISRSSIYDWLNWYRNGGEEDLDTRKA | -1.53 |
| HMAFAQMAQEAAKGKDDFNDLRQEMEAVIKEQPHILLMAQFGQNPYEIAYQEAKRRKAQDQQQQQ | 0.877 |
| HMAFGTGTVTASSLRVREDASTSAATLDTLSKGSKVSVLADEQDGFYKVQIGEQVGYMSAEYLDVTE | 0.00175 |
| HMAFKNGLLQTSKKVTLVRKVDGVTMRFDSLRAASVFLGRNKGYLSNVIKNGRTLDNYEIVVGE | -1.04 |
| HMAFRIGGFVQEGSVVRQQDGGTVRFEVTDTAHSVPVTYKGSLPDLFKEGKGVVAQGKLMNGTFVADQVLA | 0.165 |
| HMAGATDTVRNLLERQIREGELLPGQRLPTEPELAARLGVSRNSLREALQSLEDSGLIVKRHGIGTFVTE | 0.0985 |
| HMAGLELVVTREQAGRTVKSLLRGELGISTALMGRLKRTGTGLTVNGTRVFTNAVLREGDRLAVDLDAAE | -1.35 |
| HMAGLKERLFYFIEYKGLTVQSFEKTVGLSNGAVSKMGDNTRRSTIDKISNFFGDLNKNWLLTGEGEMLI | -2.98 |
| HMAGRKMMVMANNLSVRKSANSLSEKLADLSRGDTVEYISSTNGWNKVRYKGQIGYVSSYYLKDTGEEVE | -0.562 |
| HMAGTKRAENIEIQKLTEVLEARLDSVGFFWPDHKAESMIMTLRNMISRLPLTEADVRVFHGIIKSLADK | -0.486 |
| HMAGTWQDQGNGQWKYQNDDGSYATGWIEDSGKSYYLDANGIMLANTTTPDGKQVGPDGALIP | -0.15 |
| HMAHETIDVAALRVGMFVQLDLGWLSHPFPLSSFRISSEDQIATIRALGLKRVRWSSEQSDS | -4.58 |
| HMAHPRTHEALNPLWEKYLGPNAGNDFFLSGGTSLKALMFLKDLEKTLNKRIAIHAFFKDPTYEHVVSD | -0.84 |
| HMAHTGGNTLTREKAVSVRSASDALLFEIHWNETPREDILSTREEKVDGKTYSIITIRTGKGREDHYYLLS | -1.35 |
| HMAHYPGKVNNELVEFIRSEQRKTPHMTLTGLNRKLQRTYDLTLSESTVRKLVEAETILPLAREPD | -0.25 |
